Molecular target: T1, Ncc ligated to ZHk (P. furiosus, UniProt P58301 1-386; P58301 390-497)
T1 construct: Rad50 of P. furiosus, aa 1-386 (from Ncc); OaAEP1 ligation scar; replaces the natural 'LGD' (N from Ncc, GL from the N-terminus of ZHk); Rad50 of P. furiosus, Zn Hook domain, aa 390-497 (from ZHk); The ZHk part is uniformly deuterated and ILVM side-chain methyl labelled (isotopes only); also called Ncc-ZHk; Ncc-ZnHk; source: OaAEP1 ligation of Ncc (E. coli) to ZHk (E. coli, deuterated minimal …)
T1 chain: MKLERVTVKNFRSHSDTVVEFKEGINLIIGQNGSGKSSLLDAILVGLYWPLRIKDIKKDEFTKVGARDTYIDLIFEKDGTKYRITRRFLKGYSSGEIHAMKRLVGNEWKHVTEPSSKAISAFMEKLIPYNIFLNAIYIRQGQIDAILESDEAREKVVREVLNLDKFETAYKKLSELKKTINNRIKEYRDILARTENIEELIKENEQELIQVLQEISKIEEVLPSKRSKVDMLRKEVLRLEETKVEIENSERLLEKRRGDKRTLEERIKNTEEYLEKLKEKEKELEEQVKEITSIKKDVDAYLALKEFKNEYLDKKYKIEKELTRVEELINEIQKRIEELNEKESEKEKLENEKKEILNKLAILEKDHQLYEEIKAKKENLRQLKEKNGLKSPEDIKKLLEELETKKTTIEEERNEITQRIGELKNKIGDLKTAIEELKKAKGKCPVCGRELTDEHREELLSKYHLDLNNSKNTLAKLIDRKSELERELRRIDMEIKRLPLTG
Assay: co-purification on a Ni affinity column; purified ligation mixture after TEV cleavage, separated on a HisTrap HP column; a 6His tag remains only on the C-terminus of ZHk in Ncc-ZHk; unreacted products in the flowthrough, target in the elution
Details: both partners purified

B1: Pf Rad50 C-Terminal coiled-coil-NBD (aa 503 – 882) after TEV cleavage (domain or fragment, P. furiosus)
chain: GTVAEQIRSIEEELNVVNLEKIEKNATEYEKLLEELRTLEGRIRGLAEDLKKLAPLEKKLAALIHKKQELEKELKELNTKLESFGFKSVEDLDSKLRELEEIYKRYLTLLNSKKELEITQREIAKAKETLEMSFEELAEVEADIERIEKKLSQLKQKYNEEEYKKKREEKEELEKELARLEAQKKELEKRRDTIKSTLEKLKAEKENRERVKKEIKDLEKAKDFTEELIEKVKKYKALAREAALSKIGELASEIFAEFTEGKYSEVVVRAEENKVRLFVVWEGKERPLTFLSGGERIALGLAFRLAMSLYLAGEISLLILDEPTPYLDEERRRKLITIMERYLKKIPQVILVSHDEELKDAADHVIRISLENGSSKVEVVS
notes: N-terminal Gly exposed by TEV cleavage; replaces residue 502 of Rad50; also called ccC; TEV-cleaved ccC; source: E. coli BL21 Codon+, co-expressed with Ncc, purified, tag removed with TEV protease; not shown: His6 (MK-HHHHHH-ENLYFQ, with TEV cleavage site), N-terminal, cleaved
- binding result: binds

From PMC10149453, “Three segment ligation of a 104 kDa multi-domain protein by SrtA and OaAEP1” (Journal of Biomolecular Nmr, 2022)
